Test results published in article PMC5686140, “Structural disorder and induced folding within two cereal, ABA stress and ripening (ASR) proteins” (Scientific Reports, 2017).

Target: the molecule itself
Experiment: native MS; native ESI-MS, Synapt G2-Si; proteins buffer-exchanged into 250 mM ammonium acetate, pH 8.0, infused at 15 μM; source temperature 30 °C

B1: alcohol dehydrogenase (enzyme, UniProt P00330 1-348, looked up)
chain: MSIPETQKGVIFYESHGKLEYKDIPVPKPKANELLINVKYSGVCHTDLHAWHGDWPLPVKLPLVGGHEGAGVVVGMGENVKGWKIGDYAGIKWLNGSCMACEYCELGNESNCPHADLSGYTHDGSFQQYATADAVQAAHIPQGTDLAQVAPILCAGITVYKALKSANLMAGHWVAISGAAGGLGSLAVQYAKAMGYRVLGIDGGEGKEELFRSIGGEVFIDFTKEKDIVGAVLKATDGGAHGVINVSVSEAAIEASTRYVRANGTTVLVGMPAGAKCCSDVFNQVVKSISIVGSYVGNRADTREALDFFARGLVKSPIKVVGLSTLPEIYEKMEKGQIVGRYVVDTSK
notes: alcohol dehydrogenase (ADH, a tetrameric protein), control of the native ESI-MS; Species surmised: the tetrameric ADH commonly used as a native MS standard is that of S. cerevisiae; also called ADH
stoichiometry N: 4
